# B1: EndophilinA1 (natural protein, human, UniProt Q99962 1-352, looked up)
# chain: MSVAGLKKQFHKATQKVSEKVGGAEGTKLDDDFKEMERKVDVTSRAVMEIMTKTIEYLQPNPASRAKLSMINTMSKIRGQEKGPGYPQAEALLAEAMLKFGRELGDDCNFGPALGEVGEAMRELSEVKDSLDIEVKQNFIDPLQNLHDKDLREIQHHLKKLEGRRLDFDYKKKRQGKIPDEELRQALEKFDESKEIAESSMFNLLEMDIEQVSQLSALVQAQLEYHKQAVQILQQVTVRLEERIRQASSQPRREYQPKPRMSLEFPTGDSTQPNGGLSHTGTPKPSGVQMDQPCCRALYDFEPENEGELGFKEGDIITLTNQIDENWYEGMLHGHSGFFPINYVEILVALPH
# Target: the molecule itself
# Test: negative stain and cryo-electron microscopy of assemblies on liposomes
protein,measurement,value
B1,binding result,binds

# From article PMC6089609 (Methods in cell biology, 2015)
